What all share (experiment): cell-based or functional assay
The target of assay [1] is SARS-CoV-2 Omicron BA.4.6 spike protein (R346T, F486V) (SARS-CoV-2) (UniProt P0DTC2).
Assay [2] has as its target SARS-CoV-2 spike (S) protein of Omicron sublineage BA.2.75 (G446S) (SARS-CoV-2) (UniProt P0DTC2).
Assay [3] deals with SARS-CoV-2 spike (S) protein of Omicron sublineage BJ.1 (R346T, V445P, G446S) (SARS-CoV-2) (UniProt P0DTC2).
Assay [4] concerns the target SARS-CoV-2 spike (S) protein of Omicron sublineage BQ.1.1 (R346T, K444T, F486V) (SARS-CoV-2) (UniProt P0DTC2).
Assay [5] deals with SARS-CoV-2 spike protein, Omicron variant (B.1.1.529) (SARS-CoV-2) (UniProt P0DTC2).
The target of assay [6] is SARS-CoV-2 spike (S) protein, Omicron variant BA.1 (SARS-CoV-2) (UniProt P0DTC2).
For assay [7], the target named is SARS-CoV-2 spike protein, Alpha variant (B.1.1.7) (SARS-CoV-2).
Assay [8] addresses SARS-CoV-2 spike protein, Beta variant 1 (B.1.351 v1) (SARS-CoV-2).
Assay [9] concerns the target SARS-CoV-2 spike protein, Delta variant (AY.1) (SARS-CoV-2).
Assay [10] has as its target SARS-CoV-2 spike protein, Delta variant (B.1.617.2) (SARS-CoV-2).
Assay [11] has as its target SARS-CoV-2 spike protein, Gamma variant (P.1) (SARS-CoV-2).

Chain of MX492 (A19-46 x A23-58H/B1-182L) bispecific, tetravalent molecule with Fc (bispecific antibody) (chain): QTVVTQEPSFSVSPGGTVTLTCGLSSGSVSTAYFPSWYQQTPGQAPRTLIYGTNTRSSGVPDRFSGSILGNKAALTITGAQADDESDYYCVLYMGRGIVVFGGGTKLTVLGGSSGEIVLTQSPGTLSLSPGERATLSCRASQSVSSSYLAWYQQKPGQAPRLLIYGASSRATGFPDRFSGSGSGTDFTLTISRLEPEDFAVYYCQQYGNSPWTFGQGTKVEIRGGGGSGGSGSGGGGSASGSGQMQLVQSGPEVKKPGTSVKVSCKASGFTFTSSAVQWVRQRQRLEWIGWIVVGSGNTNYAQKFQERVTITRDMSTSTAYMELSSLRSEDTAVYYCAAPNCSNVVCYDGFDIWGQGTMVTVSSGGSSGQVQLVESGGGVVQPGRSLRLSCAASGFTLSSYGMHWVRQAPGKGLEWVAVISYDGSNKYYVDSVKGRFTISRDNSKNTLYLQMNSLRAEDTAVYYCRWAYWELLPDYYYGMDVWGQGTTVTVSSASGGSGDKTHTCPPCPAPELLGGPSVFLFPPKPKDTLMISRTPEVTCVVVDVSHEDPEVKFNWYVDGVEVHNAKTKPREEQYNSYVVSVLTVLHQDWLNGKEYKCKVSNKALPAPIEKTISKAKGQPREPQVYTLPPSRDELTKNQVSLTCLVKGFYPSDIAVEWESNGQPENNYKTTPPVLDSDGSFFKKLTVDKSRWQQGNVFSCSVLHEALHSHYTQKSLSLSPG
Chain of MX184 (B1-182 × A19-61) (bispecific antibody) (chain): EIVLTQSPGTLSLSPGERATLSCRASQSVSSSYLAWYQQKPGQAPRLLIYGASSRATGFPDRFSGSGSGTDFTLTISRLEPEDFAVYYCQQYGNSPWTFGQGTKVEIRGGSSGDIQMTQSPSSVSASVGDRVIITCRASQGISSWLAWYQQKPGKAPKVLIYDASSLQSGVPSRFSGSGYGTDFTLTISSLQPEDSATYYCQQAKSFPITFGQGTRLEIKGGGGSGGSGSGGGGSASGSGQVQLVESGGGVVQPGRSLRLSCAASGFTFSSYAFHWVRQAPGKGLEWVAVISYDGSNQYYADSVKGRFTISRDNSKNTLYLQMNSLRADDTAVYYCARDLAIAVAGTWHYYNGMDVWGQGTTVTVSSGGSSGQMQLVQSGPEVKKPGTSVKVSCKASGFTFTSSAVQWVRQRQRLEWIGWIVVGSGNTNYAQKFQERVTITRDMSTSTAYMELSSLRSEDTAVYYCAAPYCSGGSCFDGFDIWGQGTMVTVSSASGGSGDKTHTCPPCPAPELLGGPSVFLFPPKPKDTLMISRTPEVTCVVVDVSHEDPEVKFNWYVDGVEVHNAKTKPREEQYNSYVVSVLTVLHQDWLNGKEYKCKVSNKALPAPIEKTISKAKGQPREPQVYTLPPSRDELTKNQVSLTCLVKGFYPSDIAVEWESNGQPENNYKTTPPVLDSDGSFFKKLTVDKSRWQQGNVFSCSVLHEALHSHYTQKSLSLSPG
Chain of MX183 (A19-61 × B1-182) (bispecific antibody) (chain): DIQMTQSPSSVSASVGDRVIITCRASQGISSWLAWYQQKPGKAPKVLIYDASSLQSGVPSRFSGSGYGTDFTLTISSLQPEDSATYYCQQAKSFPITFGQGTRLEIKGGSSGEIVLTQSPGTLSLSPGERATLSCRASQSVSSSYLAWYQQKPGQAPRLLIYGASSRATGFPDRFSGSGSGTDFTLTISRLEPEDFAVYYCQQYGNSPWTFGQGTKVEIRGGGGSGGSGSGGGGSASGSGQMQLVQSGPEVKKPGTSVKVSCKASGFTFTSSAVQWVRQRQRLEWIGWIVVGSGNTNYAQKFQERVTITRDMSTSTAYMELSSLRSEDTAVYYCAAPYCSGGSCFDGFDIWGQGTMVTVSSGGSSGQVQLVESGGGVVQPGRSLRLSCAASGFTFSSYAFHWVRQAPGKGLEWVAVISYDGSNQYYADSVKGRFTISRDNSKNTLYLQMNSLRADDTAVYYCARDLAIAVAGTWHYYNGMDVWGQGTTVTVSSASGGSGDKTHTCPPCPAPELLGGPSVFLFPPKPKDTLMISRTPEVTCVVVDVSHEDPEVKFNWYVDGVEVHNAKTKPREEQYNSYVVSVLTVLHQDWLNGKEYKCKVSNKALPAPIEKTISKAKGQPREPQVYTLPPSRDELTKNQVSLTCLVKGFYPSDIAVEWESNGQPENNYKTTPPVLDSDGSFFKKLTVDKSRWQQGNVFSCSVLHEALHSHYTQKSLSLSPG

With A23-58H/B1-182L hybrid antibody, the IC50, pseudovirus neutralization was > 10000 nM in [1], 5 nM in [2], 20 nM in assay [3] and > 10000 nM in assay [4]. Moreover, the IC80, pseudovirus neutralization in [1] was > 10000 nM; in [2], 35 nM; in [3], 102 nM; in [4], > 10000 nM.

In the case of S2E12 (antibody), in assay [5], the IC50, pseudovirus neutralization came to 8.8 nM and the IC80, pseudovirus neutralization turned out to be 38.5 nM.

On to “MX183 (A19-61 × B1-182) (bispecific antibody)”, for which the IC50, pseudovirus neutralization was > 66.7 nM in assay [6]; 0.803 nM in assay [7]; 1.02 nM in assay [8]; 0.542 nM in assay [9]; 0.23 nM in assay [10]; 0.43 nM in [11]. Besides, the IC80, pseudovirus neutralization in assay [6] is > 66.7 nM; in [7], 5.66 nM; in assay [8] it was 1.65 nM; in assay [9], 1.04 nM; in assay [10], 0.948 nM; in [11] it was 2.27 nM.

Consider “MX184 (B1-182 × A19-61) (bispecific antibody)”, for which the IC50, pseudovirus neutralization in [6] worked out at 47.6 nM; in [7], 0.0772 nM; in assay [8], 0.0441 nM; in assay [9], 0.0174 nM; in assay [10], 0.0129 nM; in assay [11], 0.0325 nM. Moreover, the IC80, pseudovirus neutralization in assay [6] is > 66.7 nM; in assay [7], 0.186 nM; in [8] it was 0.12 nM; in assay [9] it was 0.03 nM; in assay [10], 0.0458 nM; in assay [11], 0.137 nM.

For “bebtelovimab (LY1404, LY-CoV1404, LY3853133) (antibody)”, the IC50, pseudovirus neutralization in [2] is 13 nM; in [3], > 10000 nM; in [4], > 10000 nM. For the same substance, the IC80, pseudovirus neutralization in assay [2] was 86 nM; in assay [3], > 10000 nM; in assay [4], > 10000 nM.

Consider “MX492 (A19-46 x A23-58H/B1-182L) bispecific, tetravalent molecule with Fc (bispecific antibody)”, for which the values for the IC50, pseudovirus neutralization in [2], in assay [3] and in [4] were 3 nM, 783 nM and > 10000 nM, respectively. For the same substance, the IC80, pseudovirus neutralization in assay [2] was 10 nM; in [3] it was 2010 nM; in [4], > 10000 nM.

For A19-61.1 antibody, the IC50, pseudovirus neutralization in assay [2], in [3] and in assay [4] was > 10000 nM throughout. Moreover, the IC80, pseudovirus neutralization in assay [2], in [3] and in [4] was > 10000 nM in each case.

In assay [5], A23-58.1 (antibody) displayed an IC50, pseudovirus neutralization of 98.1 nM and an IC80, pseudovirus neutralization of 782 nM.

(Values after US20240109955A1.)
